{
  "source": "ChEMBL document CHEMBL1629679",
  "about": "“Extended-spectrum cephalosporinases in Pseudomonas aeruginosa” (2009)",
  "proteins": {"B1": {"name": "Beta-lactamase (Pseudomonas aeruginosa), Q8RL90 (protein)", "chain": "MRDTRFPCLCGIAASTLLFATTPAIAGEAPADRLKALVDAAVQPVMKANDIPGLAVAISLKGEPHYFSYGLASKEDGRQVTPETLFEIGSVSKTFTATLAGYALAQDKMRLDDRASQHWPALQGSRFDGISLLDLATYTAGGLPLQFPDSVQKDQAQIRDYYRQWQPTYAPGSQRLYSNPSIGLFGYLAARSLGQPFERLMEQQVFPALGLEQTHLDVPEAALAQYAQGYGKDDRPLRVGPGPLDAEGYGVKTSAADLLRFVDANLHPERLDRPWAQALDATHRGYYKVGDMTQGLGWEAYDWPISLKRLQAGNSTPMALQPHRIARLPAPQALEGQRLLNKTGSTNGFGAYVAFVPGRDLGLVILANRNYPNAERVKIAYAILSGLEQQGKVPLKR"}, "B2": {"name": "Beta-lactamase (Pseudomonas aeruginosa (strain ATCC 15692 / PAO1 / 1C / PRS 101 / LMG12228)), P24735 (protein)", "chain": "MRDTRFPCLCGIAASTLLFATTPAIAGEAPADRLKALVDAAVQPVMKANDIPGLAVAISLKGEPHYFSYGLASKEDGRRVTPETLFEIGSVSKTFTATLAGYALTQDKMRLDDRASQHWPALQGSRFDGISLLDLATYTAGGLPLQFPDSVQKDQAQIRDYYRQWQPTYAPGSQRLYSNPSIGLFGYLAARSLGQPFERLMEQQVFPALGLEQTHLDVPEAALAQYAQGYGKDDRPLRVGPGPLDAEGYGVKTSAADLLRFVDANLHPERLDRPWAQALDATHRGYYKVGDMTQGLGWEAYDWPISLKRLQAGNSTPMALQPHRIARLPAPQALEGQRLLNKTGSTNGFGAYVAFVPGRDLGLVILANRNYPNAERVKIAYAILSGLEQQGKVPLKR"}},
  "key": {"[1]": {"substrate": "C[C@@H](O)[C@H]1C(=O)N2C(C(=O)O)=C(SCCNC=N)C[C@H]12", "test": "(§1) Activity at Pseudomonas aeruginosa PDC-5 by spectrophotometer"}, "[2]": {"substrate": "CC1(C)S[C@@H]2[C@H](NC(=O)Cc3ccccc3)C(=O)N2[C@H]1C(=O)O", "test": "as §1"}, "[3]": {"substrate": "CC(C)(O/N=C(\\C(=O)N[C@@H]1C(=O)N2C(C(=O)[O-])=C(C[n+]3ccccc3)CS[C@H]12)c1csc(N)n1)C(=O)O", "test": "as §1"}, "[4]": {"substrate": "CO/N=C(\\C(=O)N[C@@H]1C(=O)N2C(C(=O)O)=C(COC(C)=O)CS[C@H]12)c1csc(N)n1", "test": "as §1"}, "[5]": {"substrate": "CO/N=C(\\C(=O)N[C@@H]1C(=O)N2C(C(=O)[O-])=C(C[N+]3(C)CCCC3)CS[C@H]12)c1csc(N)n1", "test": "as §1"}, "[6]": {"substrate": "CCN1CCN(C(=O)N[C@@H](C(=O)N[C@@H]2C(=O)N3[C@@H]2SC(C)(C)[C@@H]3C(=O)O)c2ccccc2)C(=O)C1=O", "test": "as §1"}, "[7]": {"substrate": "C[C@@H](O)[C@H]1C(=O)N2C(C(=O)O)=C(SCCNC=N)C[C@H]12", "test": "(§2) Ratio of Kcat to Km for Pseudomonas aeruginosa PDC-5 by spectrophotometer"}, "[8]": {"substrate": "CC1(C)S[C@@H]2[C@H](NC(=O)Cc3ccccc3)C(=O)N2[C@H]1C(=O)O", "test": "as §2"}, "[9]": {"substrate": "CC(C)(O/N=C(\\C(=O)N[C@@H]1C(=O)N2C(C(=O)[O-])=C(C[n+]3ccccc3)CS[C@H]12)c1csc(N)n1)C(=O)O", "test": "as §2"}, "[10]": {"substrate": "CO/N=C(\\C(=O)N[C@@H]1C(=O)N2C(C(=O)O)=C(COC(C)=O)CS[C@H]12)c1csc(N)n1", "test": "as §2"}, "[11]": {"substrate": "CCN1CCN(C(=O)N[C@@H](C(=O)N[C@@H]2C(=O)N3[C@@H]2SC(C)(C)[C@@H]3C(=O)O)c2ccccc2)C(=O)C1=O", "test": "as §2"}, "[12]": {"substrate": "C[C@@H](O)[C@H]1C(=O)N2C(C(=O)O)=C(SCCNC=N)C[C@H]12", "test": "(§3) Ratio of Kcat to Km for Pseudomonas aeruginosa PDC-1 by spectrophotometer"}, "[13]": {"substrate": "CC1(C)S[C@@H]2[C@H](NC(=O)Cc3ccccc3)C(=O)N2[C@H]1C(=O)O", "test": "as §3"}, "[14]": {"substrate": "CC(C)(O/N=C(\\C(=O)N[C@@H]1C(=O)N2C(C(=O)[O-])=C(C[n+]3ccccc3)CS[C@H]12)c1csc(N)n1)C(=O)O", "test": "as §3"}, "[15]": {"substrate": "CO/N=C(\\C(=O)N[C@@H]1C(=O)N2C(C(=O)O)=C(COC(C)=O)CS[C@H]12)c1csc(N)n1", "test": "as §3"}, "[16]": {"substrate": "CO/N=C(\\C(=O)N[C@@H]1C(=O)N2C(C(=O)[O-])=C(C[N+]3(C)CCCC3)CS[C@H]12)c1csc(N)n1", "test": "as §3"}, "[17]": {"substrate": "CCN1CCN(C(=O)N[C@@H](C(=O)N[C@@H]2C(=O)N3[C@@H]2SC(C)(C)[C@@H]3C(=O)O)c2ccccc2)C(=O)C1=O", "test": "as §3"}, "[18]": {"substrate": "C[C@@H](O)[C@H]1C(=O)N2C(C(=O)O)=C(SCCNC=N)C[C@H]12", "test": "(§4) Activity at Pseudomonas aeruginosa PDC-1 by spectrophotometer"}, "[19]": {"substrate": "CC1(C)S[C@@H]2[C@H](NC(=O)Cc3ccccc3)C(=O)N2[C@H]1C(=O)O", "test": "as §4"}, "[20]": {"substrate": "CC(C)(O/N=C(\\C(=O)N[C@@H]1C(=O)N2C(C(=O)[O-])=C(C[n+]3ccccc3)CS[C@H]12)c1csc(N)n1)C(=O)O", "test": "as §4"}, "[21]": {"substrate": "CO/N=C(\\C(=O)N[C@@H]1C(=O)N2C(C(=O)O)=C(COC(C)=O)CS[C@H]12)c1csc(N)n1", "test": "as §4"}, "[22]": {"substrate": "CO/N=C(\\C(=O)N[C@@H]1C(=O)N2C(C(=O)[O-])=C(C[N+]3(C)CCCC3)CS[C@H]12)c1csc(N)n1", "test": "as §4"}, "[23]": {"substrate": "CCN1CCN(C(=O)N[C@@H](C(=O)N[C@@H]2C(=O)N3[C@@H]2SC(C)(C)[C@@H]3C(=O)O)c2ccccc2)C(=O)C1=O", "test": "as §4"}},
  "data": [
    {"protein": "B1", "values": [
      {"measurement": "Km", "setting": "[1]", "value": 15, "unit": "µM"},
      {"measurement": "kcat", "setting": "[1]", "value": 0.1, "unit": "s⁻¹"},
      {"measurement": "Km", "setting": "[2]", "value": 35, "unit": "µM"},
      {"measurement": "kcat", "setting": "[2]", "value": 30, "unit": "s⁻¹"},
      {"measurement": "Km", "setting": "[3]", "value": 30, "unit": "µM"},
      {"measurement": "kcat", "setting": "[3]", "value": 0.015, "unit": "s⁻¹"},
      {"measurement": "Km", "setting": "[4]", "value": 5, "unit": "µM"},
      {"measurement": "kcat", "setting": "[4]", "value": 0.1, "unit": "s⁻¹"},
      {"measurement": "Km", "setting": "[5]", "value": 1700, "unit": "µM"},
      {"measurement": "Km", "setting": "[6]", "value": 40, "unit": "µM"},
      {"measurement": "kcat", "setting": "[6]", "value": 5, "unit": "s⁻¹"},
      {"measurement": "kcat/Km", "setting": "[7]", "value": "6e+06", "unit": "M⁻¹ s⁻¹"},
      {"measurement": "kcat/Km", "setting": "[8]", "value": 860000, "unit": "M⁻¹ s⁻¹"},
      {"measurement": "kcat/Km", "setting": "[9]", "value": 500000, "unit": "M⁻¹ s⁻¹"},
      {"measurement": "kcat/Km", "setting": "[10]", "value": 20000, "unit": "M⁻¹ s⁻¹"},
      {"measurement": "kcat/Km", "setting": "[11]", "value": 125000, "unit": "M⁻¹ s⁻¹"}
    ]},
    {"protein": "B2", "values": [
      {"measurement": "kcat/Km", "setting": "[12]", "value": 500000, "unit": "M⁻¹ s⁻¹"},
      {"measurement": "kcat/Km", "setting": "[13]", "value": 430000, "unit": "M⁻¹ s⁻¹"},
      {"measurement": "kcat/Km", "setting": "[14]", "value": 200000, "unit": "M⁻¹ s⁻¹"},
      {"measurement": "kcat/Km", "setting": "[15]", "value": 3000, "unit": "M⁻¹ s⁻¹"},
      {"measurement": "kcat/Km", "setting": "[16]", "value": 100000, "unit": "M⁻¹ s⁻¹"},
      {"measurement": "kcat/Km", "setting": "[17]", "value": 50000, "unit": "M⁻¹ s⁻¹"},
      {"measurement": "Km", "setting": "[18]", "value": 20, "unit": "µM"},
      {"measurement": "kcat", "setting": "[18]", "value": 0.01, "unit": "s⁻¹"},
      {"measurement": "Km", "setting": "[19]", "value": 35, "unit": "µM"},
      {"measurement": "kcat", "setting": "[20]", "value": 0.004, "unit": "s⁻¹"},
      {"measurement": "Km", "setting": "[21]", "value": 6, "unit": "µM"},
      {"measurement": "kcat", "setting": "[21]", "value": 0.02, "unit": "s⁻¹"},
      {"measurement": "Km", "setting": "[22]", "value": 800, "unit": "µM"},
      {"measurement": "kcat", "setting": "[22]", "value": 0.08, "unit": "s⁻¹"},
      {"measurement": "Km", "setting": "[23]", "value": 100, "unit": "µM"},
      {"measurement": "kcat", "setting": "[23]", "value": 2, "unit": "s⁻¹"}
    ]}
  ]
}
